According to patent US20160362476:

Biological target: T1, phiC31 integrase (Streptomyces phage phiC31) (UniProt Q9T221)
T1 sequence: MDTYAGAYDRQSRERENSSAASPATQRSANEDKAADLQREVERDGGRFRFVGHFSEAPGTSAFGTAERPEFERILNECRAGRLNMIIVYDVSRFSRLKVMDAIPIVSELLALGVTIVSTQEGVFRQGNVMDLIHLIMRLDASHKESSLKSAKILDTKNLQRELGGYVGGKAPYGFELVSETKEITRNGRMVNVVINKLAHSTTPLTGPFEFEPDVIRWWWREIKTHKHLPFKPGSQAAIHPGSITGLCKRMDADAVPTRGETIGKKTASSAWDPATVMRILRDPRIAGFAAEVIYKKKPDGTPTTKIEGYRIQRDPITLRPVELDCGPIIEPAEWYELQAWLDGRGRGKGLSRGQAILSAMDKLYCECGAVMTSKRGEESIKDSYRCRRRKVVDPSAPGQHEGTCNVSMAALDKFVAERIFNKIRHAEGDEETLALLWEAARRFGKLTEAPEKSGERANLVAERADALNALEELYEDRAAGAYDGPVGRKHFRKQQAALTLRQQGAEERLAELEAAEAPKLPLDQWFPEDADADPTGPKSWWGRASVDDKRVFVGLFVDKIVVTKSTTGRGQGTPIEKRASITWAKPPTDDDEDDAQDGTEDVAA
Experiment: cell_activity

Substance | activity (co-integration of pDonor attP with pAcceptor attB in E. coli TG1, camR/ampR ratio versus already co-integrated plasmid) | activity (recombination partner of attP in E. coli TG1, camR selection)
phiC31 attP (36 bp, used as scFv linker in pDonor) | > 90% | 
GGTGCCAGGGCGTGCCCTTGGGCTCCCCGGGCGCGTACTGAANTATACAAA (double strand) [phiC31 attB (36 bp, in pAcceptor 5' of promoterless camR)] |  | > 90%
